Laboratory results: patent publication US20250236683A1 (PHARMA FOODS INTERNATIONAL, published 2025)

Target: T1, human PAD2 protein (human, UniProt Q9Y2J8 1-665)
T1 construct: also called Peptidylarginine deiminase 2; Peptidyl arginine deiminase type-2
Assay: SPR (Biacore 8K), antibody captured on Protein A chip, human PAD2 as analyte, single-cycle, 1:1 model
Method: To evaluate the binding affinity of each anti-PAD2 antibody for human PAD2 protein, the dissociation constant (KD) was measured using a surface plasmon resonance system Biacore 8K (Cytiva). Series S Sensor Chip Protein A (Cytiva) was used as the sensor chip. HBS-EP+ buffer was used as the running buffer. The test antibody was prepared at 0.8 μg/mL by using the running buffer to make a ligand solution. The ligand solution was added to the flow cell at a flow rate of 10 μL/min for 60 seconds, and the flow cell without the ligand solution was used as a reference cell. The running buffer was used to prepare human PAD2 protein from several hundred pM to several tens of nM to make each analyte solution. The running buffer was also used as a blank solution. The blank solution or analyte solution was added at a flow rate of 30 μL/min for 120 seconds by using the single-cycle method, and the dissociation time was set to 1200 seconds. The sensorgram of the reference cell was subtracted from the sensorgram of the flow cell with the ligand when the blank solution or analyte solution was added. In addition, the sensorgram when the blank solution was added was subtracted from the sensorgram when the analyte solution was added, and then used for analysis. Biacore™ Insight Evaluation Software (Cytiva) was used to calculate binding parameters while using the 1:1 binding model.

T1 sequence (Q9Y2J8 whole entry): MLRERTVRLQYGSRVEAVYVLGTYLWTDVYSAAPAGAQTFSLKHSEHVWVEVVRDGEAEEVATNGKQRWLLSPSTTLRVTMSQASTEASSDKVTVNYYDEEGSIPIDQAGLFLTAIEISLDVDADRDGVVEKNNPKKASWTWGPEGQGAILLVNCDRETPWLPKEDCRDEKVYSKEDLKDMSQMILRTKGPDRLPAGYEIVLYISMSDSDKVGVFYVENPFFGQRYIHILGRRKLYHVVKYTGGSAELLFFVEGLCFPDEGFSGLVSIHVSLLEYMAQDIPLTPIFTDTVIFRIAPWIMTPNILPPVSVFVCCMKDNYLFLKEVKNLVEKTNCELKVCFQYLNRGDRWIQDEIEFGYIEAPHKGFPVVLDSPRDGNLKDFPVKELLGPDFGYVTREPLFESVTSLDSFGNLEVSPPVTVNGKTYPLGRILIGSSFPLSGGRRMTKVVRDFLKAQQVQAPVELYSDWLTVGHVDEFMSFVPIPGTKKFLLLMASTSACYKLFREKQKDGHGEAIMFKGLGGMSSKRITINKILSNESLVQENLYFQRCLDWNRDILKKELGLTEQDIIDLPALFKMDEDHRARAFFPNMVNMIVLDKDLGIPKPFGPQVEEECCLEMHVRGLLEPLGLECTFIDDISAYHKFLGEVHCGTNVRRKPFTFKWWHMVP

B1: PK1-16 (antibody, human IgG1, lambda, V domains shown)
VH: AVTLDESGGGLQTPGGGLSLVCKASGFTFRSYAMYWVRQAPGKGLEWLAGISSSGRYTGYAPAVKGRATISRDNGQSTVRLQLSNLRAEDAGTYYCAKDVYDSWTYANRIDAWGHGTEVIVSS
VL: ALTQPSSVSANPGETVKITCSGGGRRGYYGWYQQKSPGSAPVTVIYNNDERPSNIPSRFSGFKSGSTATLTITGVQAEDEAVYYCGSGDTTTDSGIFGAGTTLTVLG
notes: Chicken/human chimeric IgG1 expressed in 293 cells; also called anti-PAD2 antibody
B1: binds.

B2: CK1-10 (antibody, human IgG1, lambda, V domains shown)
VH: AVTLDESGGGLQTPGRALSLVCKASGFTFSDYGMGWMRQAPGKGLEWVGAISNRGSHTYYGAAVKGRATISRDNGQSTVRLQLNNLRAEDTGTYYCAKDAGTCISSYGFSCVSAASIDAWGHGTEVIVSS
VL: ALTQPSSVSANLGGTVKITCSGGSGSYGGSYYYGWYQQKAPGSAPVTLIYDNTNRPSNIPSRFSGSKSGSTATLTITGVQADDEAVYFCGSIDSISDADIFGAGTTLTVLG
notes: as for B1
B2: binds.
